Reference: patent EP4431526A1 (Emfret Analytics GmbH & Co. KG, dated 2024)

How the values were obtained:
[1] = biological target: T1, human GPVI-Fc fusion protein (human, UniProt Q9HCN6 21-267, limits assumed); assay: BLI (Octet), GPVI-Fc on biosensor, 1:1 fit
T1 construct: also called human GPVI protein antigen
T1 sequence (looked up): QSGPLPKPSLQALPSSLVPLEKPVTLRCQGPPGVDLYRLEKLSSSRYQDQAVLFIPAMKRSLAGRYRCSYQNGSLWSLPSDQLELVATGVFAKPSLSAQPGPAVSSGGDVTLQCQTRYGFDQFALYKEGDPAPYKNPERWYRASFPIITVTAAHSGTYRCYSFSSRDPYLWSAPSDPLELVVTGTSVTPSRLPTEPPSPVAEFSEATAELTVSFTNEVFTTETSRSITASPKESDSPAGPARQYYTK

[2] = biological target: human GPVI, membrane expressed on platelets (human) (UniProt Q9HCN6); assay: flow cytometry, hGP6^tg/tg platelets, anti-human IgG-Fab detection, EMA601 at 0.2 ug/mL
[3] = biological target: human GPVI, membrane expressed on platelets (human) (UniProt Q9HCN6); assay: flow cytometry, hGP6^tg/tg platelets, anti-human IgG-Fab detection, EMA601 at 0.1 ug/mL
[4] = biological target: T1, human GPVI-Fc fusion protein; assay: ratio of KD values (0.46 nM against 0.195 nM)
[5] = biological target: human GPVI, membrane expressed on platelets (human) (UniProt Q9HCN6); assay: flow cytometry ex vivo, hGP6^tg/tg platelets, anti-human IgG-Fab-FITC, 1 h after 4 mg/kg i.v.
[6] = biological target: human GPVI, membrane expressed on platelets (human) (UniProt Q9HCN6); assay: cell-based or functional assay

B1: HC1 LC2 humanized Fab (EMA601) (Fab, V domains shown)
VH: QVQLQESGPGLVKPSETLSLTCTASGFSLTSYGVTWIRQPPGKGLEWIGVIWGDGSTNYHSGLRSRVTISVDTSKSQFSLKLSSVTAADTAVYYCAKPIYYDFDDDAMDYWGQGTLVTVSS
VL: DIQMTQSPSSLSASVGDRVTITCKASQNVGTYVAWFQQRPGKAPKSLIYSASYRCSGVPSKFSGSGSGTDFTLTINSLQPEDFATYYCHQYNNYPLTFGQGTKVEIKR
notes: also called EMF601; VH1:VL2
[1]
  Kd: 0.195 nM
  koff: 0.000123 s⁻¹
  kon: 628000 M⁻¹ s⁻¹
[2]
  % of the epitopes occupied compared to the highest tested concentration (50 µg/mL): 86.2%
[3]
  % of the epitopes occupied compared to the highest tested concentration (50 µg/mL): 57.3%
[4]
  fold increase of affinity against Emf6.1^Fab: ~2.3 fold
[5]
  fold amount of bound Fab against ACT017: 1.8 fold
[6]
  collagen-induced aggregation of washed human platelets: 50 % reduction
  potency to inhibit GPVI function in human and hGP6^tg/tg platelets in vitro, against ACT017: 10 fold
